Measurements reported in patent US20140072613A1, “Compositions and Methods for Treating Cutaneous Scarring” (priority 2012, published 2014).

Key:
Assay in all cases: biochemical
Format in all cases: biochemical
[1] = biological target: T1, 266 human kinases (Homo sapiens, UniProt P54760); details: EphB4(h); 100 μM
T1 sequence (P54760 16-987): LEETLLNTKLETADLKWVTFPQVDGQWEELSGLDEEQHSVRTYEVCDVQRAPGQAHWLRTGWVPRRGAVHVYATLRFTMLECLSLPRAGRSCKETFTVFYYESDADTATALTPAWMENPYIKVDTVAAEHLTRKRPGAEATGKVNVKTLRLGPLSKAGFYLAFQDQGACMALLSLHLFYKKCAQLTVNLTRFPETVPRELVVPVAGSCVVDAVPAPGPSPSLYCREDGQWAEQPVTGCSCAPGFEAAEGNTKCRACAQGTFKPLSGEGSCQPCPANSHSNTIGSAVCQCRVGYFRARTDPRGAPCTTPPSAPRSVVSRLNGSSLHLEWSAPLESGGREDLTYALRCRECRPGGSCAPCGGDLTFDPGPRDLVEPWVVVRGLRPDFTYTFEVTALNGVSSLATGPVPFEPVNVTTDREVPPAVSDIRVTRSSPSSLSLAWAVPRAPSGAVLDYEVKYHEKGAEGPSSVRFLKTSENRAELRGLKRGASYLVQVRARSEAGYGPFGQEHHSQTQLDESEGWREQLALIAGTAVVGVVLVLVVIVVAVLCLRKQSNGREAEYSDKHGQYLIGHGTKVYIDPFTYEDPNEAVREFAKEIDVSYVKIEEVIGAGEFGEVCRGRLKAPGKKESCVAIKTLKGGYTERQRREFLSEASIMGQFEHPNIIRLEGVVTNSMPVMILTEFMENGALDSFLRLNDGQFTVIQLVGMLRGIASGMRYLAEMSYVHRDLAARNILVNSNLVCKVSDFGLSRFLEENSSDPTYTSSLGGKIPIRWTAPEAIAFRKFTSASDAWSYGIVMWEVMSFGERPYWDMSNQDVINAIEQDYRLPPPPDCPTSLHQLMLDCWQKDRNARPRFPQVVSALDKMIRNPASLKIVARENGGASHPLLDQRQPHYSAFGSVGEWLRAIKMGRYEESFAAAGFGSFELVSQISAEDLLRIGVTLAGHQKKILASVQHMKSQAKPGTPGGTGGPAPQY
Summary of the method: (§1)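 Radiometric filter-binding format: a positively charged substrate takes up radiolabelled phosphate from ATP unless the kinase is inhibited, then is captured on a negatively charged filter membrane. Counts from scintillation are expressed relative to a 100% activity control.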

[2] = biological target: T2, 266 human kinases (Homo sapiens, UniProt P42681); details: Txk(h); 100 μM
T2 sequence (P42681 1-527): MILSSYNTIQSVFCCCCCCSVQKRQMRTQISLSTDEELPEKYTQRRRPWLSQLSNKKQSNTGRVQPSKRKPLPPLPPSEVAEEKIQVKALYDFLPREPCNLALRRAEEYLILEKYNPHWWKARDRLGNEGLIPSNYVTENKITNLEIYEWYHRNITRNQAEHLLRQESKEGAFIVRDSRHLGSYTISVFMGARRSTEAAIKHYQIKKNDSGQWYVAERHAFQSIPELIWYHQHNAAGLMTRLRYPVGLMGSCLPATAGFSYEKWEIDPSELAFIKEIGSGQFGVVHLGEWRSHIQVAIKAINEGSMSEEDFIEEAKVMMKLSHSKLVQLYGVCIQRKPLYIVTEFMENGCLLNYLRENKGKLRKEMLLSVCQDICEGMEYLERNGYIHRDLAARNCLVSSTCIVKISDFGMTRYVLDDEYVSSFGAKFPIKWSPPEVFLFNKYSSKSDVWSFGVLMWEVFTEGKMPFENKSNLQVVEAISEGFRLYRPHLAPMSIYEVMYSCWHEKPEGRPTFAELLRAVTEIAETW
Summary of the method: as §1

[3] = biological target: T3, 266 human kinases (Homo sapiens, UniProt Q99683); details: ASK1(h); 100 μM
T3 sequence (Q99683 1-1374): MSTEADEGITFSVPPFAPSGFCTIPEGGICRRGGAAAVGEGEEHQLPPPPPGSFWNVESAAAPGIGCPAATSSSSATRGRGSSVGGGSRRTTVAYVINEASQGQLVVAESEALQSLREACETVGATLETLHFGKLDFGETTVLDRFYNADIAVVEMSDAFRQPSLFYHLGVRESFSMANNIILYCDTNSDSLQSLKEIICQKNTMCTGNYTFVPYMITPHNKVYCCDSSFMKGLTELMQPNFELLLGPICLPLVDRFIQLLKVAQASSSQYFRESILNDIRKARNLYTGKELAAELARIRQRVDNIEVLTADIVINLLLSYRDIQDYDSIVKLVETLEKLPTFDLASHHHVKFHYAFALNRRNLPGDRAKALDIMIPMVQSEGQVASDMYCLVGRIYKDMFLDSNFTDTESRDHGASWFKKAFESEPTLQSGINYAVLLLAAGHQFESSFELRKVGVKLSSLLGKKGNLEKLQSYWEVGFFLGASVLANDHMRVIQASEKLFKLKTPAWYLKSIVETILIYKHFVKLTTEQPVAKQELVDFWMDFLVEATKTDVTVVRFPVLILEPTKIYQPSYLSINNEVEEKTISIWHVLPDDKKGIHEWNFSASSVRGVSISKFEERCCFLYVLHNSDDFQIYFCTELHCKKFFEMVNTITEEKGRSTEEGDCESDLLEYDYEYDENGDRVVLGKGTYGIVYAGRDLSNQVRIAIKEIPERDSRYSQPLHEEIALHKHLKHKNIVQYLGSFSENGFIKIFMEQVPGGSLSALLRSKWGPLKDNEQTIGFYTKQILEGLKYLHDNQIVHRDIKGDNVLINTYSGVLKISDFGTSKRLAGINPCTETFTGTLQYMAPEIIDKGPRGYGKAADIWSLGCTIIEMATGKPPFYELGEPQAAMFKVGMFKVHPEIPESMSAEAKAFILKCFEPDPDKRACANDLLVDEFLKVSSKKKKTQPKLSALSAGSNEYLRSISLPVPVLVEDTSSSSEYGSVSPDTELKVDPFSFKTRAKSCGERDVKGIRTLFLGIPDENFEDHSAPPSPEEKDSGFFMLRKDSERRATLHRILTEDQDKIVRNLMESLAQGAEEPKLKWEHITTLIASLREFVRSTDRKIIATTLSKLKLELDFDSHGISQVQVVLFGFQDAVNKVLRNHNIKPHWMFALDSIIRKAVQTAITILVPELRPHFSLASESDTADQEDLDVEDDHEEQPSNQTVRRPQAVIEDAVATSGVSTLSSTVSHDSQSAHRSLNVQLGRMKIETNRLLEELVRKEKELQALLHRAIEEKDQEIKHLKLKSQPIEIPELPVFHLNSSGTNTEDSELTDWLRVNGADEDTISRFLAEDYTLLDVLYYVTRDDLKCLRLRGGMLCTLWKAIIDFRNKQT
Summary of the method: as §1

Sequence | % activity [1] [%] | % activity [2] [%] | % activity [3] [%]
YARAAARQARAKALNRQLGVA (mammal) [MMI-0200] | 131 | 98 | 101
HRRIKAWLKKIKALARQLGVAA (mammal) [MMI-0500] | 38 | 10 | −4
